Experimental data as given in publication PMC8972799.

Molecular target: T1, D-alanyl carrier protein ligase DltA from Staphylococcus aureus Mu50 (S. aureus) (UniProt P68876)
T1 sequence: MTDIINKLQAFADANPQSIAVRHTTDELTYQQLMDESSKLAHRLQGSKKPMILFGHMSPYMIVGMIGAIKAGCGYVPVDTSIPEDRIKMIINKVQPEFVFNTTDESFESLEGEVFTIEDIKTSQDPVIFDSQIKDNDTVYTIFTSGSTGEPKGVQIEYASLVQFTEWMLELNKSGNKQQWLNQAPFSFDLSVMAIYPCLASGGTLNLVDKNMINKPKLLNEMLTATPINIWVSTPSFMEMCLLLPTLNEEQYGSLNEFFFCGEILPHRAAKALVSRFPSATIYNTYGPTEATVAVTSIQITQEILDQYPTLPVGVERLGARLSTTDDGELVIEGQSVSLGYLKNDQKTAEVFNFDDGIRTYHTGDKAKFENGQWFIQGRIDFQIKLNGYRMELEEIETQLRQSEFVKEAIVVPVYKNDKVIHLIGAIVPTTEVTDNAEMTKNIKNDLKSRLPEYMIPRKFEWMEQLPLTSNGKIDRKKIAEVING

B1: wild-type S. aureus DltC, Ppant-modified (natural protein)
chain: MEFREQVLNLLAEVAENDIVKENPDVEIFEEGIIDSFQTVGLLLEIQNKLDIEVSIMDFDRDEWATPNKIVEALEELR
modifications: 4'-phosphopantetheinyl (Ppant) group at Ser36
With B1 the adenylation activity of SaDltA (5 µM; initial rate, pyrophosphate-detection assay, 5 mM D-alanine) in the presence of 300 µM wild-type SaDltC, against SaDltA alone was 7.2 fold.
